From patent publication US20050266004A1 (published 2005)

How the values were obtained:
[1] = target: T1, human TNFα (human, UniProt P01375 77-233); test: EIA, recombinant protein coated at 1 µg/mL
T1 construct: Coated as recombinant protein in the EIA
Experimental: (§1) Enzyme immunoassays (EIAs) were used to test hybridoma cell supernatants for the presence of murine anti-LTα Mabs. Briefly, plates were coated with rhuLTα at 10 μg/mL in PBS overnight. After washing in 0.15 M saline containing 0.02% (v/v) Tween 20, the wells were blocked with 1% (w/v) BSA in PBS for 1 hour at RT. Undiluted hybridoma supernatants were incubated on the plates for one hour at 37° C. The plates were washed and probed with HRP-conjugated goat anti-mouse IgG Fc specific antibody for one hour at 37° C. The plates were again washed and citrate-phosphate substrate solution (0.1 M citric acid and 0.2 M sodium phosphate, 0.01% H₂O₂ and 1 mg/mL OPD) was added for 15 minutes at RT. Stop solution (4N sulfuric acid) was then added and the OD's were read at 490 nm using an automated plate spectrophotometer. The anti-human LTα Mabs were assessed for their ability to cross-react with murine LTα or human TNFα. The recombinant proteins were coated on EIA plates at 1 μg/mL in the same manner described above. Purified Mabs were incubated on the plates in serial dilutions starting at […] for 1 hour at 37° C. The plates were washed, probed and processed as above. […] Eight different hybridoma clones that secrete a murine IgG1 κ Mab specifically binds to rhuLTα.

[2] = target: T2, murine LTα (murine, UniProt P09225 34-202, limits assumed); test: EIA, recombinant protein coated at 1 µg/mL
T2 construct: Coated as recombinant protein in the EIA; used as 'murine LTα lysates' in the WEHI assay; also called murine LTα lysates
T2 sequence (looked up): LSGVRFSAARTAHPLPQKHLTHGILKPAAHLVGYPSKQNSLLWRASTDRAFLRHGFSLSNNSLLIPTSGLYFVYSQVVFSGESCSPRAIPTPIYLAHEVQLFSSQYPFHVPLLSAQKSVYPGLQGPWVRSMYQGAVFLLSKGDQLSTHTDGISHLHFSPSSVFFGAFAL
Experimental: as §1

[3] = target: T3, recombinant human lymphotoxin alpha (rhuLTα) (human, UniProt P01374 35-205); test: SPR; Mab captured on immobilized anti-murine Fc antibody, rhuLTα in solution
T3 construct: also called human LTα; Soluble LTα
T3 sequence (looked up): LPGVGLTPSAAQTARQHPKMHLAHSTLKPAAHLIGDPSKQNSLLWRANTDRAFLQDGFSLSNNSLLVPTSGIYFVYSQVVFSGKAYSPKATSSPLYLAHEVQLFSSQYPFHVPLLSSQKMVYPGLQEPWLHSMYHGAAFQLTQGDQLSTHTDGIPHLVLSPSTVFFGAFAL
Experimental: The affinity of anti-human LTα Mabs for rhuLTα was determined using surface plasmon resonance technology. The murine Mabs were first captured on chips that contained immobilized polyclonal anti-murine Fc antibody. Buffer containing rhuLTα was then passed over the captured Mab molecules and the resulting change in the mass bound over time was recorded.

[4] = target: T3, recombinant human lymphotoxin alpha …; test: cell-based or functional assay

T1 sequence (P01375 77-233 limits assumed): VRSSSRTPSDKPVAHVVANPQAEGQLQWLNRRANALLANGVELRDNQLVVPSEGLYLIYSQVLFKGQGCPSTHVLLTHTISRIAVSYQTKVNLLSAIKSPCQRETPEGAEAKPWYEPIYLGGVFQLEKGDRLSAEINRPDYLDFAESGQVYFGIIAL

B1: murine anti-human LTα Mab 4 (antibody, V domains shown)
VH: PGLVAPAQSLSITCTVSGFSLTSYGVHWVRQPPGKGLEWLGVIWAGGNTNYNSPLMSRLRIIKDNSKSQVFLKMNSLQADDTAMYYCVSHDVNNPFGYWGQGTLVTVSA
VL: DIQMTQTTSSLSASLGDRVTISCRASQDITNYLNWYQQKPDGTVKLLIYYTSRLHSGVPSRFSGSGSGTDYSLTISNLEQEDIATYFCQQGNTLPYTFGGGTRLEIK
notes: Tested as the murine IgG1 kappa hybridoma Mab; also called Mab number 4
**Q.** Which results are given for B1?
**A.** binding result [1]: no binding (tested: serial dilutions starting at 25 µg/nL); binding result [2]: no binding (tested: serial dilutions starting at 25 µg/nL); Kd [3]: 1.1 nM; IC50, inhibition of LTα-mediated WEHI 164 cell cytotoxicity, rhuLTα at 10 ng/mL [4]: 6.2 µg/mL; IC50, inhibition of WEHI 164 cell cytotoxicity, rhuLTα at 0.1 ng/mL [4]: 0.54 µg/mL; normalized molar ratio of Mab to rhuLTα at the IC50 value, rhuLTα at 0.1 ng/mL [4]: 1800 molar ratio Mab:rhuLTα
